Publication PMC5647543, “The Two-State Prehensile Tail of the Antibacterial Toxin Colicin N” (Biophysical Journal, 2017)

Molecular target: T1, ColN_(90–387) (ColN-RP), receptor binding and pore forming domains of colicin N (Escherichia coli, UniProt P08083 90-387)
T1 construct: In PDB 1A87 the first resolved residue is S91; source: purified as previously described (20, 26); 15N-labelled protein from bacteria grown in M9 minimal medium with 15NH4Cl; not shown: His6 (-SSHHHHHH), C-terminal, kept
T1 sequence (looked up): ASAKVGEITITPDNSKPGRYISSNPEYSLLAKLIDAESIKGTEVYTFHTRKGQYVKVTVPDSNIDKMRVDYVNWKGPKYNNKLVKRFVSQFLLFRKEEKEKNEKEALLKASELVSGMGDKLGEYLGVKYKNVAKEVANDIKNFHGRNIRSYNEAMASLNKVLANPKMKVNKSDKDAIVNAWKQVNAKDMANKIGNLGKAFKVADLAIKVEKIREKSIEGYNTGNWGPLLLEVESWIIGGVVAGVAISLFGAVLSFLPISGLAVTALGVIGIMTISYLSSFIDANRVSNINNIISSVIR
Assay: NMR titration; free unlabelled ColN-T added to 15N-labelled ColN-RP; 15N-1H HSQC chemical shift changes; spectra at 15°C
Details: both partners purified

B1: ColN_(1–90) (ColN-T), isolated translocation domain of colicin N (domain or fragment)
chain: MGSNGADNAHNNAFGGGKNPGIGNTSGAGSNGSASSNRGNSNGWSWSNKPHKNDGFHSDGSYHITFHGDNNSKPKPGGNSGNRGNNGDGA
notes: colicin N (ColN), residues 1-90, the intrinsically disordered translocation (T-) domain; the whole toxin has 387 residues; 98-residue construct: residues 1-90 followed directly by Ser2His6; Used unlabelled in the NMR mixing experiment; also called T-domain; ColN-T(1-90)-SSHHHHHH; source: purified as previously described (20, 26), dialysed into 50 mM sodium phosphate, pH 7.6, 300 mM NaCl; not …
- binding result: binds
